From US20220363757A1

Key:
[1] = molecular target: cynomolgus LAG-3 ECD human IgG1 Fc fusion (cynomolgus; human) (UniProt P18627); experiment: SPR, Fab over captured LAG-3 ECD-Fc
[2] = molecular target: human LAG-3 ECD human IgG1 Fc fusion (human) (UniProt P18627); experiment: SPR, Fab over captured LAG-3 ECD-Fc
[3] = molecular target: human LAG-3 domain 1-2 Fc fusion, chimeric construct #20 (mutated region AA 123-131) (human) (UniProt P18627); experiment: SPR, Fab over captured mutant LAG-3-Fc
[4] = molecular target: human LAG-3 domain 1-2 Fc fusion, point mutation #20 A73S (human) (UniProt P18627); experiment: SPR, Fab over captured mutant LAG-3-Fc
Chain of human LAG-3 domain 1-2 Fc fusion, point mutation #20 A73S (human) (P18627 23-266 A73S): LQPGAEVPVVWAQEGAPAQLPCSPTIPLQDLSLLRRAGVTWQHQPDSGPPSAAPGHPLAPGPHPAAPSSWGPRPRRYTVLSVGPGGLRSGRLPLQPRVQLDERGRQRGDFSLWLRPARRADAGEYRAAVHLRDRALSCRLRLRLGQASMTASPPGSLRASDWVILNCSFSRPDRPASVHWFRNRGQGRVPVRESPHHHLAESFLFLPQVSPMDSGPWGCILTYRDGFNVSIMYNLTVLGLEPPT

Chain of human LAG-3 ECD human IgG1 Fc fusion (human) (P18627 23-450): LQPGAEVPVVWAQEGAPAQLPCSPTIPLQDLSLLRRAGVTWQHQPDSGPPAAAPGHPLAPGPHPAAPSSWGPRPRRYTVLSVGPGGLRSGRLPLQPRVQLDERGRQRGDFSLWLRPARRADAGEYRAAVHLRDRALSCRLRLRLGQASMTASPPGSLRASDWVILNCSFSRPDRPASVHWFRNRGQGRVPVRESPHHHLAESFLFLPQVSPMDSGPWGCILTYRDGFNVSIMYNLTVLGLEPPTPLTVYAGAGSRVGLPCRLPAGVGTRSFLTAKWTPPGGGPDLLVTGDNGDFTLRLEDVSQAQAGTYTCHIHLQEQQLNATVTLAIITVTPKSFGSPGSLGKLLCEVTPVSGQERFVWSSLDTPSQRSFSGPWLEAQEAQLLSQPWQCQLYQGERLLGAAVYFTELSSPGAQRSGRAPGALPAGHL
Chain of cynomolgus LAG-3 ECD human IgG1 Fc fusion (cynomolgus; human) (P18627 other isoform, or with tags, fused parts or gaps, form in doubt): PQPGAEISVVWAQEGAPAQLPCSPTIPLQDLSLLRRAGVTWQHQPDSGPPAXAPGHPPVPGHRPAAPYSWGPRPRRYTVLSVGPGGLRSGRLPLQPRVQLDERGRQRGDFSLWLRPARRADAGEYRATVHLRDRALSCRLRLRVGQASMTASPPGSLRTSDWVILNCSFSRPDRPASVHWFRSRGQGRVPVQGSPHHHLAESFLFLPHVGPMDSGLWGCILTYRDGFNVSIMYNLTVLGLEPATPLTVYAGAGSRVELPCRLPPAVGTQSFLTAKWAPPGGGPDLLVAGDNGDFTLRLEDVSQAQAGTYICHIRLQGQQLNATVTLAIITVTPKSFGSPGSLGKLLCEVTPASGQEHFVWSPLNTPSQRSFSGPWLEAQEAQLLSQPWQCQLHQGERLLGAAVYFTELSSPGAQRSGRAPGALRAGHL
Chain of human LAG-3 domain 1-2 Fc fusion, chimeric construct #20 (mutated region AA 123-131) (human) (P18627 23-266, stated change not applied): as the sequence (P18627 23-266 A73S) above, with S51A counted along it

- Kd [1]: 910 nM
- koff [1]: 0.0038 s⁻¹
- kon [1]: 4200 M⁻¹ s⁻¹
- Kd [2]: 8.5 nM
- koff [2]: 0.0012 s⁻¹
- kon [2]: 140000 M⁻¹ s⁻¹
- KD mutant/KD wild type [3]: 1.3 fold
- KD mutant/KD wild type [4]: 0.8 fold
Substance: Fab fragment of 25F7-Lag3.5 analogue
